Laboratory results: patent publication US20220306762A1 (CRYSTAL BIOSCIENCE, published 2022)
Like-named read-outs stand apart in the source and are kept apart here.

T1: His-tagged mouse CD38 (ACRO Biosystems CD8-M5223) (mouse, UniProt P56528 45-304)
T1 construct: bought protein; used for ELISA coating and as SPR analyte; also called Murine; not shown: His tag
T1 sequence (looked up): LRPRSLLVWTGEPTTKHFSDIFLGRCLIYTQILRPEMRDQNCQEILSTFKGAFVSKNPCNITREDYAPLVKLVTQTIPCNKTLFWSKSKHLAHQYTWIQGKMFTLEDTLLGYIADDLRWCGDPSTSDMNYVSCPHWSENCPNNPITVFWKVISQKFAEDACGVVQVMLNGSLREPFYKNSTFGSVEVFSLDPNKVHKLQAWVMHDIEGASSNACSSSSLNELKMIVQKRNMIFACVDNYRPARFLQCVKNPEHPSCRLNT

T2: Murine CD38 on transiently transfected Expi293 cells (Origene MC208001) (murine, UniProt P56528 1-304)
T2 construct: whole, on cells
T2 sequence (looked up): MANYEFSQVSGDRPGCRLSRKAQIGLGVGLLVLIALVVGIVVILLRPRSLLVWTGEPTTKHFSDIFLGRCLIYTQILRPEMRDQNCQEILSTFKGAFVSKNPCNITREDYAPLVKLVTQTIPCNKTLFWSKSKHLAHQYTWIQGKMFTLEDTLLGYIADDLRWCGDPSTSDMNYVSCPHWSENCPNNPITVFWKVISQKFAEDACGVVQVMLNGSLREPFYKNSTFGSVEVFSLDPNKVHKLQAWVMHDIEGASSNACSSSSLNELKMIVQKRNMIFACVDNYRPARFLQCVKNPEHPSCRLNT

B1: 40769p2.1.E1 IgG (antibody, V domains shown)
VH: EVQLLESGGGLIQPGGSLRLSCTASGFDFSSYGMHWVRQAPGKGLEWVAIISDSGGTTYYGDSVKGRFTISRDNSKSTLYLQMNSLRAEDTALYYCASYIMDVWGQGTTVTVSS
VL: QSVLTQPPSASGTPEQRVTISCSGSNSNVGDNAVYWYQQLPGTAPKLLFYGTNRRPSGVPDRFSGSKSGTSASLAISGLQSEDEADYYCAAWDDSLNAWVFGGGTKLTVL
notes: IgG
B2: 40769p2.1.G4 IgG (antibody, V domains shown)
VH: EVQLLESGGGLVQPGGSLRLSCAASGFTFTSHDMNWVRQAPGKGLEWVSTITTGGNTYYADSVKGRFTISRDNSKNTLYLQMTSLRAEDTAVYYCTKHYSMDVWGQGTTVTVSS
VL: QSVLTQPPSASGTPGQRVTISCSGSTSNVVFNAVYWYQQLPGTAPKLLFYGKSQRPSGVPDRFSGSKSGTSASLAISGLQSEDEADYYCAAWDDTLNGWVFGGGTKLTVL
notes: IgG
B3: 40769p2.2.A5 IgG (antibody, V domains shown)
VH: EVQLLESGGGLIQPGGSLRLSCTASGFDFSSYGMHWVRQAPGKGLEWVGIISDTGGTTYYGDSVKGRFTISRDNSKSTLYLQMNSLRAEDTALYYCASYIMDVWGQGTTVTVSS
VL: QSVLTQPPSASGTPGQRVTISCSGSNSNVGDNAVYWYQQLPGTAPKLLFYGTNRRPSGVPDRFSGSKSGTSASLAISGLQSEDEADYYCAAWDDSLNAWVFGGGTKLTVL
notes: IgG
B4: 40769p2.1.H12 IgG (antibody, V domains shown)
VH: EVQLLESGGGLIQPGGSLRLSCTASGFDFSSYGMHWVRQAPGKGLEWVGIISDSGGTTYYADSVKGRFTISRDNSKNTLYLQMNSLRAEDTALYYCASYIMDVWGQGITVTVSS
VL: QSVLTQPPSASGTPGQRVTISCSGSNSNVGVNSVYWYQQLPGTAPKLLIYGSGRRPSGVPDRFSVSKSGTSASLAISGLQSEDEADYYCAAWDDGLNAWVFGGGTKLTVL
notes: IgG
B5: 40769p2.2.C8 (antibody, V domains shown)
VH: EVQLLESGGGLVPPGGSLRLSCAASGFTFTNAWMSWVRQAPGKGLEWVSTIRSKTDGGTPYSADSVKGRFTISRDDSKNTLYLQMNSLRAEDTAVYYCAKYDYNYMDVWGQGTTVTVSS
VL: QSVLTQPPSASGTPGQRVTISCSGTTSNIGRNYVHWYQQFPGTAPKLLIYRNSQRPSGVPDRFSGSKSGTSASLAISGLQSEDEADYYCAAWDDSLNGWLFGGGTKLTVL
notes: Human V regions from transgenic chicken, cloned as scFv-Fc; The variable domains can be found in the listing by the CDRs
B6: 40769p2.2.A6 scFv-Fc (scFv, V domains shown)
VH: EVQLLESGGGLVQPGGSLRLSCAASGFTFSDYEMNWVRQAPGKGLEWVSAISITGSWTYYADSVKGRFTISRDNSENTLYLQMNNLRAEDTAVYYCANYKSYYGMDVWGRGTTVTVSS
VL: QSVLTQPPSASGTPGQRVTISCSGSRSNIRNNLVNWYQQLPGTAPKLLIYNTQRPSGVPDRFSGSKSGTSASLAISGLQSEDEADYYCASWDASLNAWVFGGGTKLTVL
notes: scFv-Fc
B7: 40769p2.2.C11 scFv-Fc (scFv, V domains shown)
VH: EVQLLESGGGLVQPGGSLRLSCAASGFTFSDYEMNWVRQAPGKGLEWVSSISITGSWTYYADSVKGRFTISRDNSKNTLYLQMNNLRAEDTAVYYCANYKSYYGMDVWGHGTTVTVSS
VL: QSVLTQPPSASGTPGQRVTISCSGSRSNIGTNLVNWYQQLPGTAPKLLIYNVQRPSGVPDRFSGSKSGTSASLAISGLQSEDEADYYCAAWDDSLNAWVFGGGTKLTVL
notes: scFv-Fc
B8: 40769p2.2.E7 (antibody, V domains shown)
VH: EVQLLESGGGLVQPGGSLRLSCTGFGFTFTDARMSWVRQAPGKGLEWVADISSYGDNTYYADSVKGRFTISRDNSANTLYVQMNSLRAEDTAVYYCAKRMEREVMTIKLDYHAMDVWGQGTTVTVSS
VL: QSVLTQTPSVSGTPGQRVTISCSGIFNIRNYVSWYQQLPGTAPKLLIFKDDQRLSGVPDRFSGSGSGTSASLAISGLQSEDEADYYCAAWDIFLNVWVFGGGTKLTVL
notes: as for B5
B9: 40769p2.2.A8 (antibody, V domains shown)
VH: EVQLLESGGGLVQPGGSLRLSCAASGFTFSDYWMNWVRQAPGKGLEWVSTISISGGIIYYADSVKGRFTISRDNSKNTLYLQMNSLRAEDTAVYYCAKDNWNDYYGMDVWGQGTTVTVSS
VL: QSVLTQPPSASGTPGQRVTISCSGSTSNIRDNYVYWYQQVPGTAPKLLIYKDDQRPSGVPDRFSGSKSGTSASLAISGLQSDDEADYYCATWDGSLNGRVFGGGTKLTVL
notes: as for B5
B10: 40769p2.2.D9 scFv-Fc (scFv, V domains shown)
VH: EVQLLESGGGLVQPGGSLRLSCAGSGFTFSDYWMSWVRQAPGKGLEWVSTISITAGIIYYADSVKGRFTISRDNSKNTLYLQMNSLRAEDTAVYYCAKDNWNDYYGMDVWGQGTTVTVSS
VL: QSVLTQPPSASGTPGQRVTVSCSGSRSNIRDNYVYWYQQVPGTAPKLLIYKDDQRPSGVPDRFSGSKSGTSASLVISGLQSEDEADYYCATWDGSLNARVFGGGTKLTVL
notes: scFv-Fc
B11: 40596p2.1.A2 IgG (antibody, V domains shown)
VH: EVQLLESGGGLVQPGGSLTLSCTASGLTFSSYAMNWVRQAPGKGLEWVATISSNSGSFRSYADSVKGRFTISRDNSKSTLYLQTNSLRAEDTALYYCTKDRSITANDFTMDVWGQGTTVTVSS
VL: EIVLTQSPGTLSVSPGERATLNCRASQTVGSRLAWYQQKPGQAPRLLIYGASSRATGIPARFSGSGSGTEFTLTISSLQSEDFAVYYCQQYYDWPPLTFGGGTKVEIK
notes: IgG
B12: 40769p2.1.F2 (antibody, V domains shown)
VH: EVQLLESGGGLVQPGGSLRLSCVASGFTFTNYEMNWVRQAPGKGLEWVSSISITGNYIYYADSVKGRFTISRDNSKNTLYLQMNDLRAEDTAVYYCANYKSYHGMDVWGQGTTVTVSS
VL: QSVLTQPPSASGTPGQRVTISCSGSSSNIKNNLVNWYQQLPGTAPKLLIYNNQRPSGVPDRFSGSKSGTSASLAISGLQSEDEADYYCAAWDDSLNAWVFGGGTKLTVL
notes: as for B5
B13: 40769p2.1.C4 (antibody, V domains shown)
VH: EVQLLESGGGLVHPGGSLRLSCAASGFTFSDYEMNWVRQAPGKGLEWVSSISITGDFTYYADSVKGRFTISRDNSKNTLYLQMNNLRAEDTAVYYCANYKSYYGLDVWGQGTTVTVSS
VL: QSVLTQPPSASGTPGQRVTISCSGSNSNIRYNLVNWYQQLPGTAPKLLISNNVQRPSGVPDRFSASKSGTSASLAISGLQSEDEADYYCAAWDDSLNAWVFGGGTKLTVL
notes: as for B5

Experiments:
[1] = target: T3, His-tagged human CD38 (ACRO Biosystems CD8-H5224) (human, UniProt P28907 43-300); assay: SPR, IgG
T3 construct: bought protein; used for ELISA coating and as SPR analyte; not shown: His tag

[2] = target: T4, His-tagged cynomolgus monkey CD38 (ACRO Biosystems, CD8-05223 [sic]) (cynomolgus monkey, UniProt Q5VAN0 43-301); assay: SPR, IgG
T4 construct: bought protein; used for ELISA coating and as SPR analyte; not shown: His tag

[3] = target: T1, His-tagged mouse CD38 (ACRO Biosystems …); assay: SPR, IgG
[4] = target: T5, CD38 on Daudi target cells (UniProt P28907 1-300, limits assumed); assay: cell-based or functional assay
[5] = target: T5, CD38 on Daudi target cells; assay: cell-based or functional assay; remark: listed apart in the source
[6] = target: T6, His-tagged human CD38 (ACRO Biosystems cat #CD8-H5224) (human, UniProt P28907 43-300); assay: SPR (Carterra LSA), antibody captured by anti-human Fc, His-tagged CD38 injected; IgG by the head of Table 5
T6 construct: Bought His-tagged protein

[7] = target: T7, His-tagged cynomolgus monkey CD38 (ACRO Biosystems cat # CD8-05223 [sic]) (cynomolgus monkey, UniProt Q5VAN0 43-301); assay: as above
T7 construct: Bought His-tagged protein; also called cynomolgus CD38

[8] = target: T3, His-tagged human CD38 (ACRO Biosystems …); assay: ELISA, 1 ug/ml scFv-Fc, coated His-tagged CD38
[9] = target: T4, His-tagged cynomolgus monkey CD38 (ACRO …); assay: ELISA, 1 ug/ml scFv-Fc, coated His-tagged CD38
[10] = target: T1, His-tagged mouse CD38 (ACRO Biosystems …); assay: ELISA, 1 ug/ml scFv-Fc, coated His-tagged CD38
[11] = target: T8, Human CD38 on transiently transfected Expi293 cells (Origene SC321273) (human, UniProt P28907 1-300); assay: flow cytometry, 10 ug/ml scFv-Fc, transfected Expi293 cells
T8 construct: whole, on cells

[12] = target: T2, Murine CD38 on transiently transfected …; assay: as above

Binder | Kd [1] [nM] | Kd [2] [nM] | Kd [3] [nM] | Lowest Remaining Target % [4] [%] | Max RLU [4] [RLU] | PBMC ADCC EC50 [4] [ng/mL] | Reporter cell ADCC EC50 [4] [ng/mL] | ADCC EC50 [5] [ng/mL] | Lowest Remaining Target % [5] [%] | Max RLU [5] [RLU] | PBMC ADCC EC50 [5] [ng/mL] | Kd [6] [nM] | Kd [7] [nM] | also measured
B1 | 25.6 | 261 | 1170 |  |  |  |  |  |  |  |  |  |  | 
B2 | 35.5 | 73.8 | 106 |  |  |  |  |  |  |  |  |  |  | 
B3 | 18.8 | 221 | 1160 |  |  |  |  |  |  |  |  |  |  | 
B4 | 160 | 316 | 21400 |  |  |  |  |  |  |  |  |  |  | 
B5 |  |  |  | 58 | 2.18e+06 | 0.167 | ~9.74 | ~9.74 | 58 | 2.18e+06 | 0.167 | 1.17 | 3.64 | 
B6 |  |  |  |  |  |  |  |  |  |  |  |  |  | ELISA signal [8]: 1.75; ELISA signal [9]: 1.62; ELISA signal [10]: 0.043; FACS percent gated [11]: 92.2%; FACS percent gated [12]: 2.43%
B7 |  |  |  |  |  |  |  |  |  |  |  |  |  | ELISA signal [8]: 1.53; ELISA signal [9]: 1.52; ELISA signal [10]: 0.043; FACS percent gated [11]: 92.8%; FACS percent gated [12]: 1.26%
B8 |  |  |  | 63 | 1.33e+06 | 0.0245 | ~13.2 | ~13.2 | 63 | 1.33e+06 | 0.0245 | 0.47 | 1.99 | 
B9 |  |  |  | 56 | 1.85e+06 | 0.273 | 9.82 | 9.82 | 56 | 1.85e+06 | 0.273 | 2.58 | 3.27 | 
B10 |  |  |  |  |  |  |  |  |  |  |  |  |  | ELISA signal [8]: 1.51; ELISA signal [9]: 1.47; ELISA signal [10]: 0.043; FACS percent gated [11]: 92.6%; FACS percent gated [12]: 2.87%
B11 | 10.9 |  | 6.71 |  |  |  |  |  |  |  |  |  |  | 
B12 |  |  |  | 57 | 1.72e+06 | 0.293 | 25.3 | 25.3 | 57 | 1.72e+06 | 0.293 | 3.3 | 7.05 | 
B13 |  |  |  | 63 | 1.44e+06 | 0.227 | ~12.2 | ~12.2 | 63 | 1.44e+06 | 0.227 | 1.46 | 1.12 | 
